In patent publication US20030138873A1, “Tissue engineered cartilage for drug discovery” (priority 2002, published 2003):

Key:
[1] = test system: engineered cartilage tissue; assay: Cartilage matrix turnover measured using radiolabelling (35S-proteoglycan chase); type: cell-based, bovine; conditions: for T½ of 35S-PGs in the tissue (loss of 35S-PGs) / T½ of 35S-PGs, bimodal rate of disappearance from the tissue: IL-1α 1 ng/ml; for T½ of 35S-PGs in the tissue (loss of 35S-PGs): 7-day chase; for T½ of 35S-PGs, bimodal rate of disappearance from the tissue: double exponential decay fit
Procedure: (§1) Engineered Cartilage Tissue Formation: Engineered cartilage tissue was prepared as described in U.S. Pat. No. 6,197,061. Briefly, bovine articular chondrocytes were isolated from steer (14-18 months) and cultured in beads of 1.2% low viscosity alginate (Keltone LV, Kelco) at 4 million cells/ml in daily changes of medium containing 20% FBS, 25 μg/ml ascorbate and 10 μg/ml gentamicin, as described above in Mok, et al. On day 7, beads were dissolved by incubation for 20 minutes in 55 mM NaCitrate in 150 mM NaCl. The cells with their CM (cellular matrix) were recovered by mild centrifugation. The cells with their CM were resuspended in complete medium and seeded onto a tissue culture insert (0.4 μm pore size; 23 mm diameter, Falcon). After 7 and 21 days in culture, the de novo formed tissue was separated from the porous membrane and 4 mm diameter discs were punched out using a skin biopsy punch.
Discs of engineered cartilage tissue were punched out from engineered cartilage tissue on day 7 and 21 and were incubated for 16 h in complete medium containing ^35S-sulfate (20 μCi/ml). After washing to remove unincorporated radioisotope, the discs were cultured for 7 days in isotope-free medium with or without IL-1α (1 ng/ml). The medium in all cases was changed and collected for the measurement of ^35S-labeled proteoglycans (^35S-PGs). At various times, discs were collected and the content of ^35S-PGs in each disc and the corresponding spent medium fraction was measured by a rapid filtration assay (4). For each set of conditions (i.e. with or without IL-1α) the amount of radiolabeled PGs remaining in each matrix pool was plotted against time of chase to measure the average half-life of ^35S-PGs in each compartment. The data were fitted to the double exponential decay equation: y=ae^−bx+ce^−d+e and the half-life calculated based on b and d. Mok, et al., Aggrecan synthesized by mature bovine chondrocytes suspended in alginate: Identification of two distinct metabolic matrix pool, Biol. Chem., 269, 33021-33027 (1994)

[2] = test system: engineered cartilage tissue; assay: Cartilage matrix turnover measured without radiolabelling (PG content by DMMB method); type: cell-based, bovine
Procedure: as §1
Discs of engineered cartilage tissue was punched out from engineered cartilage tissue on day 7 and cultured for 5 days in complete medium with/without IL-1α (1 ng/ml). Engineered cartilage tissue was obtained as described above. On days 1, 2, 3 and 5, the discs were harvested and digested with papain. After digestion the contents of sulfated PG and DNA were measured by the DMMB method and Hoechst 33258-dye method, respectively. […]

[3] = tissue radiolabeled on day 7 [1W]
[4] = tissue radiolabeled on day 21 [3W]

B1: IL-1: cytokine interleukin-1 (IL-1α), known modulator inducing cartilage matrix degradation, used at 1 ng/ml (protein, UniProt P01583 113-271, looked up)
Interleukin-1 alpha: SAPFSFLSNVKYNFMRIIKYEFILNDALNQSIIRANDQYLTAAALHNLDEAVKFDMGAYKSSKDDAKITVILRISKTQLYVTAQDEDQPVLLKEMPEIPKTITGSETNLLFFWETHGTKNYFTSVAHPNLFIATKQDYWVCLAGGPPSITDFQILENQA
T½ of 35S-PGs in the tissue (loss of 35S-PGs) [1, 3]: 41.5 h
T½ of 35S-PGs, bimodal rate of disappearance from the tissue [1, 3]: 3.6 h
T½ of 35S-PGs in the tissue (loss of 35S-PGs) [1, 4]: 49.9 h
T½ of 35S-PGs, bimodal rate of disappearance from the tissue [1, 4]: 35.5 h
appearance in the medium of 35S-PGs ([1]; addition of IL-1 to the medium (1 ng/ml)): rapid increase
loss of the PGs from the engineered cartilage tissue ([2]; IL-1 at 1 ng/ml, single day of treatment, day 7 discs): 50%
loss of proteoglycan content of engineered cartilage matrix ([2]; within a single day after treatment with IL-1): roughly half
